In the nanobody polyreactivity screen of Harvey et al. (2022):

Assay: yeast display, Sf9 membrane polyspecificity reagent, FACS + sequencing; frameworks hold sequencing errors
In short: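 A synthetic nanobody library was expressed on Saccharomyces cerevisiae BJ5465 by galactose induction for 36–48 hours. The library was stained for 1 hour at 4 °C with 10% biotinylated, detergent-solubilized Sf9 membrane reagent and enriched with streptavidin microbeads before FACS. Low and high (top ~1%) gates were set on anti-HA fluorescence for expression and streptavidin fluorescence for reagent binding, and each polyreactivity label reflects the gate of origin.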

Sequence	polyreactivity (PSR sort gate)
QVQLVESGGGLVQAGGSLRLSCAASGSIFLRYTMGWYRQAPGKETEFVAAITWTADSTYYADSVKGRFTISRDNAKNTVYLQMNSLKPEDTAVYYCAASYSTIWTLYYYWGQGTQVTVSS	low polyreactivity
QVQLVESGGGLVQAGGSLRLSCAASGFTFYNYAMGWYRQAPGKERELVAAISYSGGSTYYADSVKGRFTISRDNAKNTVYLQMNSLKPEDTAVYYCAVVWWIQYVPGSYHAGYYWGQGTQVTVSS	high polyreactivity
QVQLVESGGGLVQAGGSLRLSCAASGFTFWAYAMGWYRPAPGKERELVARISGSGGRTYYADSVKGRFTISRDNAKNTVYLQMNSLKPEDTAVYYCAARRYYYPVGYDYWGEGTQVTVSS	high polyreactivity
QVQLVESGGGLVQAGGSLRLSCAASGFIFVRYGMGWYRQAPGKERELVAAITWNGGSTFYADSVKGRFTISRDNAKNTVYLQMNSLKPEDTAVYYCAAGYKYSYRSIYTHVDYWGQGTQVTVSS	low polyreactivity
QVQLVESGGGLVQAGGSLRLSCAASGSTFPGNAMGWYRQAPGKERELVAAINWSGDSTYYADSVKGRFTISRDNAKNTVYLQMNSLKPEDTAVYYCAAYGVGYYYWGQGTQVTVSS	low polyreactivity
LVQLVESGGGLVQAGGSLRLSCAASGSIFSVYAMGWYRQAPGKERELVAAITWRGGNTYYADSVKGRFTLSRDNAKNTVYLQMNSLKPEDTAVYYCNRVYRQRLGRDYWGQGTQVTVSS	high polyreactivity
QVQLVESGGGLVQAGGSLRLSCAASGRIFRWYTMGWYRQAPGKERELVARISSGGITYYADSVKGPFTISRDNAKNTVYLQMNSLKPEDTAVYYCNTYVSRNFDYWGQGTQLTVSS	high polyreactivity
QVQLVESGGGLVQAGGSLRLSCAASGSIFYRNVMGWYRQAPGKERELVAAISRSGGSTYYADSVKGRFTISRDNAKNTVYLQMNSLQPEDTAVYYCAGRYSPFYYWGQGTQVTVSS	high polyreactivity
QVHLVESGGGLVQAGGSLRLSCAASGSIFYVYAMGWYRQAPGKERELVAAITSSGTTNYADSVKGRFTISRDNAKNTVYLQMNSLKPEDTAVYYCAADPDSGQVPFDYWGQGTQVTVSS	low polyreactivity
QVQLVESGGGLVQAGGSLRLSCAASGFIFGGNTMGWSRQAPGKERELVASITLSGGRTHYADSVKGRFTISRDNAKNTVYLQMNSLKPEDTAVYYCARSLASYLHAGDTEYNGSYWGQGTQVTVSS	low polyreactivity
QVQLVESGGGLVQAGGSLRLSCAASGSILGYYAMGWYRQAPGKERELVAAISSGGSTNYADSVKGRFTISRDNAKNTVYLQMNSLKPEDTAVYYCAAGVTWPYRYVWYDYWGQGTQVTVSS	low polyreactivity
QVQLVESGGGLVQAGGSLRLSCAASGRTFFGYAMGWYIQAPGKERELVAAITWNGGRTYYADSVRGRFTISRDNAKNTVYLQMNSLKPEDTAVYYCAARVGDGVRRYNYWGQGTQVTVSS	high polyreactivity
QVQLVESAGGLVQAGGSLRLICAASGLIFYRNTMGWYRQAPGKERELVAAISVSGGSTNYADSVKGRFTISRDNAKNTVYLQMNILKPEDTAVYFCATRVNYGYYYWGQGTQVTVSS	high polyreactivity
QVQLVESGGGIVQAGGSLRLSCAASGFISYRNAMGWDRMAPGKERELVASITSSGGRTYYADSVKGRFTISRDNAKNTVYLQMNSLKPEDTAVYDWAADNWYKKQKRPSAYDYWGQGTQVSVSS	high polyreactivity
QVQLVESGGGLVQAGGSLSLSCAAYGITISIYSMGSYRQAPGKERELVAAINSGGTTYYADSVKGRFTISRDNAKNTVYLQMNSLKPEDTAVYYCADEYFAYPYEFYGGQGTQVTVSS	high polyreactivity
QVQLVESGGGLVQAGGSLRLSCAASGRTFYIYALGWYRQAPGKERELVAAISWGSGSTYYADSVKGRFTISRDNAKNTVYLQMNSLKPEDTAVYYCAAEYAYPSEWTYDYWGQGTQVTVSS	low polyreactivity
